Test results as given in patent publication US20250282887A1 (Amgen, published 2025).
Numbering of substitutions follows the chain as printed.

B1: 1C3 (antibody, V domains shown)
VH: QSLEESGGGLVQPEGSLTLTCTAFGVTLTNYYICWVRQAPGKGLEWVGCIDNANGRTYYASWAKGRFTISKTSSTTGTLQMTSLTAADTATYFCARSLATPLWGPGTLVTVSS
VL: DIVMTQTPSSVEAAVGGTVTIKCQASQNISSYLAWYQQKPGQPPKLLIYRASTLASGVPSRFKGSGSGTQFTLTISDLECADAATYYCQSYDDSRSSNFFYAFGGGTEVVVKG
notes: also called MAGE-B2 (IC3); anti-MAGEB2 antibody 1C3
B2: 4G17 (antibody, IgG1, V domains shown)
VH: B1 VH with F24S, T29S, V47I, A53V
VL: DIVMTQTPASVEAAVGGTVTIKCQASQNIDSYLAWYQQKPGQPPKLLIYRASTLASGVPSRFKGSGSGTEFTLTISDLECADAATYYCQSYDDSRSSSFFYGFGGGTEVVVK
notes: Rabbit monoclonal IgG1; Tested as supernatant and as small batch purified antibody; also called MAGE-B2 (4G17); anti-MAGEB2 antibody 4G17
B3: 1J15 (antibody, IgG1, V domains shown)
VH: B1 VH with V26F, T29N, V47I, G48A, G77V, A99S
VL: B2 VL with N28S, D30S, A34S, K63R, E70Q, R95S, S96D, S97N, S98N, K112R
notes: Rabbit monoclonal IgG1; Tested as supernatant and as small batch purified antibody; also called MAGE-B2 (IJ15); anti-MAGEB2 antibody 1J15
B4: 1I14 (antibody, V domains shown)
VH: QSVEESGGRLVTPGTPLTLTCTISGFSLSSYAMSWVRQAPGKGLEWIGSIGGGGSAVYASWAKGRFTISKTSTTVDLRITSPTTEDTAMYFCGRGFYSIDLWGPGTLVTVSS
VL: DVVMTQTPASVEATVGGTVTIKCQSSQSVYDNNALAWYQQNAGQRPRLLIYGASTLASGVPSRFSASGSGTEFTLTISDLECADAATYYCQCTYYVSSYQNDFGGGTEVVVKG
notes: also called MAGE-B2 (1i14)

Biological target: T1, Human MAGEB2 (Melanoma-associated antigen B2) (human, UniProt O15479 1-319)
T1 construct: Intracellular antigen detected by IHC in FFPE material: CHO cells transfected with human MAGEB2 (mCherry vector with Myc/DDK tags, or ORF without tags)
T1 sequence: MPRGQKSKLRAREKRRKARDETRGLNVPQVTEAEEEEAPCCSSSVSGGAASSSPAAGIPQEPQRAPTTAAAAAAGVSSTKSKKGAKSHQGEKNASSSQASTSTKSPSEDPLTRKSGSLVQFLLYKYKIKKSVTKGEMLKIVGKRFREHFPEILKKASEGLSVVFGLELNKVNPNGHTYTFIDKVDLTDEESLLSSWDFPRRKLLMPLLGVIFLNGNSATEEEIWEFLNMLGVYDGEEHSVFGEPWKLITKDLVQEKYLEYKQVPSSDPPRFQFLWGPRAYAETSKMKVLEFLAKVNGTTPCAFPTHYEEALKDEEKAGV
Test: IHC on FFPE T98G cells (endogenous MAGEB2)
Procedure: (§1) FFPE samples were sectioned at 4 μm and mounted on positive charged glass slides. After mounting, paraffin sections were air-dried at room temperature. FFPE TMA samples were received as freshly sectioned and mounted on glass slides. The fully automated IHC assay was performed on a Discovery Ultra Stainer (Ventana Medical Systems, Tucson, AZ) using Ventana Anti-Rabbit HQ (cat #760-4815), Ventana Anti-HQ HRP (cat #760-4820), and Ventana Antibody Diluent with Casein (cat #760-219) (Ventana Medical Systems, Tucson, AZ). The slides were baked on the Discovery Ultra Stainer at 60° C. for 8 minutes, de-paraffinized with Ventana Discovery wash (cat #950-510) for 3 cycles (8 minutes each) at 69° C., and underwent cell conditioning (target retrieval) at 95° C. for 16 minutes (for cell arrays) or 32 minutes (tissues or TMAs) in CC1 buffer (cat #950-500). Following this, slides were incubated with Background Sniper (cat #BS966M, Biocare Medical, Pacheco, CA) in a Ventana Option Prep kit (cat #771-751) for 28 minutes, incubated with CM inhibitor (a part of the Ventana DAB kit cat #760-159) for 12 minutes, and incubated for 1 h at RT with MAGE-B2 antibody diluted with Ventana diluent with Casein in a Ventana Prep kit (cat #770-001) (working concentration at 0.1 μg/ml for cell pellet, or 1-5 ug/ml for tissues) or with a matched concentration of isotype control Rabbit IgG1 antibody. Following this, slides were incubated with the Ventana Anti-Rabbit HQ (cat #760-4815) for 28 minutes at RT, Ventana Anti-HQ HRP (cat #760-4820) for 28 minutes at RT, and signals detected with Ventana DAB chromogen kit (cat #760-159) for 5 minutes at RT. Slides were counterstained with Ventana Hematoxylin II (cat #5266726001) for 8 minutes and Ventana Bluing reagent (cat #526676900) for 4 minutes. Slides were coverslipped and digitized using an Aperio AT2 scanner (Leica Biosystems Inc, Buffalo Grove, IL).

Binder | IHC % Frequency [%] | IHC Intensity
B1 | 70 | 2
B2 | 70 | 2
B3 | 70 | 1
B4 | 70 | 2

Biological target: T2, human MAGEA2 (human, UniProt P43356 1-314)
T2 construct: whole, on cells; FFPE cell pellets
Test: IHC, FFPE CHO cells transfected with human MAGEA2
Procedure: as §1

T2 sequence (P43356 whole entry): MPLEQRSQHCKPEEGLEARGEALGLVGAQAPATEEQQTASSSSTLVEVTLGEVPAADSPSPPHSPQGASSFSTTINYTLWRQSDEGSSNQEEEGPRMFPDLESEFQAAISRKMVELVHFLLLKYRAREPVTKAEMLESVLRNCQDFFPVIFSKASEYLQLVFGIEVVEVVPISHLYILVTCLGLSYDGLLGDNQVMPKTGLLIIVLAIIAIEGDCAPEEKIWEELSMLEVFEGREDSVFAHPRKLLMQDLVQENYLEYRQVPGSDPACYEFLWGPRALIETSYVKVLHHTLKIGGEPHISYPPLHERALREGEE

Binder | binding result
B1 | no binding (tested: 0.1 µg/ml)
B2 | no binding (tested: 0.1 µg/ml)
B3 | no binding (tested: 0.1 µg/ml)
B4 | no binding (tested: 0.1 µg/ml)

Biological target: T3, human MAGEA12 (human, UniProt P43365 1-314)
T3 construct: whole, on cells; FFPE cell pellets
Test: IHC, FFPE CHO cells transfected with human MAGEA12
From the text: Negative control cells included parental Chinese hamster ovary (CHO) cells, CHO cells stably transfected with mCherry Vector Control (minus Myc/DDK tags), CHO cells stably transfected with mCherry-human DCAF4L2 (plus Myc/DDK tags). The cross-reactivity control cells included CHO cells transfected with mCherry Vector Control (plus Myc/DDK tags) with one of the human MAGE-B or MAGE-A family members (MAGEA1, MAGEA2, MAGEA3, MAGEA4, MAGEA5, MAGEA6, MAGEA8, MAGEA9, MAGEA11, MAGEA12, MAGEB1, MAGEB3, MAGEB4, MAGEB5, MAGEB6, MAGEB10, MAGEB16, MAGEB17, MAGEB18). Positive control cell lines included CHO cells transfected with mCherry Vector (plus Myc/DDK tags) with human MAGE-B2 or CHO cells transfected with mCherry Vector (open reading frame (ORF); minus Myc/DDK tags) with human MAGEB2, and thirteen human cancer cell lines with known endogenous RNA expression level of MAGEB2 (U266B1, T98G, KMM-1, U20S, CFPAC-1, SCaBER, UACC-257, CFPAC-1, VMRC-LCD, NCI-H1703, UM-UC-3, NCI-H1395, NCIH82).
as §1, with “antibody.” for “antibody. Following this, slides were incubated with the Ventana Anti-Rabbit HQ (cat #760-4815) for 28 minutes at RT, Ventana Anti-HQ HRP (cat #760-4820) for 28 minutes at RT, and signals detected with Ventana DAB chromogen kit (cat #760-159) for 5 minutes at RT. Slides were counterstained with Ventana Hematoxylin II (cat #5266726001) for 8 minutes and Ventana Bluing reagent (cat #526676900) for 4 minutes. Slides were coverslipped and digitized using an Aperio AT2 scanner (Leica Biosystems Inc, Buffalo Grove, IL).”

T3 sequence (P43365 whole entry): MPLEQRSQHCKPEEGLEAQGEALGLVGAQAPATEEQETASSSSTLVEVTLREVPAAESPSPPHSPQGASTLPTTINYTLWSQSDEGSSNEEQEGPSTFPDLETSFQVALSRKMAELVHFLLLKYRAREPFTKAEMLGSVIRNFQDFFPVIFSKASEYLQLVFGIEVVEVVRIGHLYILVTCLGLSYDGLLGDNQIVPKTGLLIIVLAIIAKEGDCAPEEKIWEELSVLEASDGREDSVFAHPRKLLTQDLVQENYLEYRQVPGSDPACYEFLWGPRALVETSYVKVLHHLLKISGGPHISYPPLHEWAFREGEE

Binder | binding result
B1 | no binding (tested: 0.1 µg/ml)
B2 | no binding (tested: 0.1 µg/ml)
B3 | no binding (tested: 0.1 µg/ml)
B4 | no binding (tested: 0.1 µg/ml)

Biological target: T1, Human MAGEB2 (Melanoma-associated …)
Test: IHC on FFPE NCI-H1703 cells (endogenous MAGEB2)
Procedure: as §1

Binder | IHC % Frequency [%] | IHC Intensity
B1 | 0 | –
B2 | 0 | 0
B3 | 0 | –
B4 | 0 | –
